# Data taken from patent US20240117018A1.
# What was measured:
# Assay in all cases: cell-based or functional assay
# [1] = molecular target: HIV-1 Env pseudovirus 3817.v2.c59 (HIV-1)
# [2] = molecular target: HIV-1 Env pseudovirus X1193_c1 (HIV-1)
# [3] = molecular target: HIV-1 Env pseudovirus CNE5 (HIV-1)
# [4] = molecular target: HIV-1 Env pseudovirus 235-47 (HIV-1)
# [5] = molecular target: HIV-1 Env pseudovirus T251-18 (HIV-1)
# [6] = molecular target: HIV-1 Env pseudovirus BJOX025000.01.1 (HIV-1)
# [7] = molecular target: HIV-1 Env pseudovirus C2101.c01 (HIV-1)
# [8] = molecular target: HIV-1 Env pseudovirus P0402_c2_11 (HIV-1)
# [9] = molecular target: HIV-1 Env pseudovirus 3103.v3.c10 (HIV-1)
# [10] = molecular target: HIV-1 Env pseudovirus R3265.c06 (HIV-1)
# [11] = molecular target: HIV-1 Env pseudovirus BJOX009000.02.4 (HIV-1)
# [12] = molecular target: HIV-1 Env pseudovirus R2184.c04 (HIV-1)
# [13] = molecular target: HIV-1 Env pseudovirus MS208.A1 (HIV-1)
# [14] = molecular target: HIV-1 Env pseudovirus ZM53M.PB12 (HIV-1)
# [15] = molecular target: HIV-1 Env pseudovirus 6535.3 (HIV-1)
# [16] = molecular target: HIV-1 Env pseudovirus Q461.e2 (HIV-1)
# [17] = molecular target: HIV-1 Env pseudovirus CAP210.2.00.E8 (HIV-1)
# [18] = molecular target: HIV-1 Env pseudovirus RHPA4259.7 (HIV-1)
# [19] = molecular target: HIV-1 Env pseudovirus BF1266.431a (HIV-1)
# [20] = molecular target: HIV-1 Env pseudovirus PVO.4 (HIV-1)
# [21] = molecular target: HIV-1 Env pseudovirus Du172.17 (HIV-1)
# [22] = molecular target: HIV-1 Env pseudovirus TRJO4551.58 (HIV-1)
# [23] = molecular target: HIV-1 Env pseudovirus 1054_07_TC4_1499 (HIV-1)
# [24] = molecular target: HIV-1 Env pseudovirus Ce0393_C3 (HIV-1)
substance,measurement,setting,value
8ANC195 (antibody),IC50 (Titer in TZM.bl cells),[1],1 µg/mL
same,IC80 (Titer in TZM.bl cells),[1],5.3 µg/mL
same,IC50 (Titer in TZM.bl cells),[2],0.27 µg/mL
same,IC80 (Titer in TZM.bl cells),[2],1.66 µg/mL
same,IC50 (Titer in TZM.bl cells),[3],2.12 µg/mL
same,IC80 (Titer in TZM.bl cells),[3],9.67 µg/mL
same,IC50 (Titer in TZM.bl cells),[4],> 50 µg/mL
same,IC80 (Titer in TZM.bl cells),[4],> 50 µg/mL
same,IC50 (Titer in TZM.bl cells),[5],1.51 µg/mL
same,IC80 (Titer in TZM.bl cells),[5],1.51 µg/mL
same,IC50 (Titer in TZM.bl cells),[6],4.96 µg/mL
same,IC80 (Titer in TZM.bl cells),[6],> 50 µg/mL
same,IC50 (Titer in TZM.bl cells),[7],0.48 µg/mL
same,IC80 (Titer in TZM.bl cells),[7],3.54 µg/mL
same,IC50 (Titer in TZM.bl cells),[8],0.62 µg/mL
same,IC80 (Titer in TZM.bl cells),[8],6.35 µg/mL
same,IC50 (Titer in TZM.bl cells),[9],48.1 µg/mL
same,IC80 (Titer in TZM.bl cells),[9],> 50 µg/mL
same,IC50 (Titer in TZM.bl cells),[10],50 µg/mL
same,IC80 (Titer in TZM.bl cells),[10],> 50 µg/mL
same,IC50 (Titer in TZM.bl cells),[11],0.64 µg/mL
same,IC80 (Titer in TZM.bl cells),[11],3.09 µg/mL
same,IC50 (Titer in TZM.bl cells),[12],0.09 µg/mL
same,IC80 (Titer in TZM.bl cells),[12],13 µg/mL
VRC01 (antibody),IC50 (Titer in TZM.bl cells),[13],0.1 µg/mL
same,IC80 (Titer in TZM.bl cells),[13],0.46 µg/mL
same,IC50 (Titer in TZM.bl cells),[14],1.3 µg/mL
same,IC80 (Titer in TZM.bl cells),[14],4 µg/mL
same,IC50 (Titer in TZM.bl cells),[15],0.54 µg/mL
same,IC80 (Titer in TZM.bl cells),[15],2.7 µg/mL
same,IC50 (Titer in TZM.bl cells),[1],> 50 µg/mL
same,IC80 (Titer in TZM.bl cells),[1],> 50 µg/mL
same,IC50 (Titer in TZM.bl cells),[16],0.49 µg/mL
same,IC80 (Titer in TZM.bl cells),[16],1.6 µg/mL
same,IC50 (Titer in TZM.bl cells),[2],0.11 µg/mL
same,IC80 (Titer in TZM.bl cells),[2],0.32 µg/mL
same,IC50 (Titer in TZM.bl cells),[3],0.37 µg/mL
same,IC80 (Titer in TZM.bl cells),[3],1.1 µg/mL
same,IC50 (Titer in TZM.bl cells),[17],> 50 µg/mL
same,IC80 (Titer in TZM.bl cells),[17],> 50 µg/mL
same,IC50 (Titer in TZM.bl cells),[4],0.04 µg/mL
same,IC80 (Titer in TZM.bl cells),[4],0.17 µg/mL
same,IC80 (Titer in TZM.bl cells),[5],11.2 µg/mL
same,IC50 (Titer in TZM.bl cells),[18],0.06 µg/mL
same,IC80 (Titer in TZM.bl cells),[18],0.185 µg/mL
same,IC50 (Titer in TZM.bl cells),[19],0.07 µg/mL
same,IC80 (Titer in TZM.bl cells),[19],0.23 µg/mL
same,IC50 (Titer in TZM.bl cells),[20],0.22 µg/mL
same,IC80 (Titer in TZM.bl cells),[20],1.2 µg/mL
same,IC50 (Titer in TZM.bl cells),[7],0.36 µg/mL
same,IC80 (Titer in TZM.bl cells),[7],1.17 µg/mL
same,IC50 (Titer in TZM.bl cells),[21],> 50 µg/mL
same,IC80 (Titer in TZM.bl cells),[21],> 50 µg/mL
same,IC50 (Titer in TZM.bl cells),[22],0.08 µg/mL
same,IC80 (Titer in TZM.bl cells),[22],0.21 µg/mL
same,IC50 (Titer in TZM.bl cells),[23],0.71 µg/mL
same,IC80 (Titer in TZM.bl cells),[23],2.85 µg/mL
same,IC50 (Titer in TZM.bl cells),[8],0.21 µg/mL
same,IC80 (Titer in TZM.bl cells),[8],0.59 µg/mL
same,IC50 (Titer in TZM.bl cells),[9],0.93 µg/mL
same,IC80 (Titer in TZM.bl cells),[9],2.49 µg/mL
same,IC50 (Titer in TZM.bl cells),[10],0.45 µg/mL
same,IC80 (Titer in TZM.bl cells),[10],1.88 µg/mL
same,IC50 (Titer in TZM.bl cells),[12],0.08 µg/mL
same,IC80 (Titer in TZM.bl cells),[12],0.32 µg/mL
same,IC50 (Titer in TZM.bl cells),[24],0.62 µg/mL
same,IC80 (Titer in TZM.bl cells),[24],2.37 µg/mL
3BNC117 (antibody),IC50 (Titer in TZM.bl cells),[1],0.15 µg/mL
same,IC80 (Titer in TZM.bl cells),[1],0.52 µg/mL
same,IC50 (Titer in TZM.bl cells),[2],0.06 µg/mL
same,IC80 (Titer in TZM.bl cells),[2],0.25 µg/mL
same,IC50 (Titer in TZM.bl cells),[3],0.28 µg/mL
same,IC80 (Titer in TZM.bl cells),[3],1.28 µg/mL
same,IC50 (Titer in TZM.bl cells),[4],0.03 µg/mL
same,IC80 (Titer in TZM.bl cells),[4],0.12 µg/mL
same,IC50 (Titer in TZM.bl cells),[5],0.26 µg/mL
same,IC80 (Titer in TZM.bl cells),[5],0.82 µg/mL
same,IC50 (Titer in TZM.bl cells),[6],0.05 µg/mL
same,IC80 (Titer in TZM.bl cells),[6],0.2 µg/mL
same,IC50 (Titer in TZM.bl cells),[7],0.05 µg/mL
same,IC80 (Titer in TZM.bl cells),[7],0.31 µg/mL
same,IC50 (Titer in TZM.bl cells),[8],0.06 µg/mL
same,IC80 (Titer in TZM.bl cells),[8],0.38 µg/mL
same,IC50 (Titer in TZM.bl cells),[9],0.22 µg/mL
same,IC80 (Titer in TZM.bl cells),[9],0.85 µg/mL
same,IC50 (Titer in TZM.bl cells),[10],0.48 µg/mL
same,IC80 (Titer in TZM.bl cells),[10],13 µg/mL
same,IC50 (Titer in TZM.bl cells),[11],0.4 µg/mL
same,IC80 (Titer in TZM.bl cells),[11],1.79 µg/mL
same,IC50 (Titer in TZM.bl cells),[12],0.03 µg/mL
same,IC80 (Titer in TZM.bl cells),[12],0.1 µg/mL
VRC07 (antibody),IC50 (Titer in TZM.bl cells),[1],1.9 µg/mL
same,IC80 (Titer in TZM.bl cells),[1],19.8 µg/mL
same,IC50 (Titer in TZM.bl cells),[2],0.037 µg/mL
same,IC80 (Titer in TZM.bl cells),[2],0.249 µg/mL
same,IC50 (Titer in TZM.bl cells),[3],0.138 µg/mL
same,IC80 (Titer in TZM.bl cells),[3],0.524 µg/mL
same,IC50 (Titer in TZM.bl cells),[4],0.024 µg/mL
same,IC80 (Titer in TZM.bl cells),[4],0.075 µg/mL
same,IC50 (Titer in TZM.bl cells),[5],1.32 µg/mL
same,IC80 (Titer in TZM.bl cells),[5],6.49 µg/mL
same,IC50 (Titer in TZM.bl cells),[6],0.279 µg/mL
same,IC80 (Titer in TZM.bl cells),[6],2.29 µg/mL
same,IC50 (Titer in TZM.bl cells),[7],0.238 µg/mL
same,IC80 (Titer in TZM.bl cells),[7],1.4 µg/mL
same,IC50 (Titer in TZM.bl cells),[8],0.085 µg/mL
same,IC80 (Titer in TZM.bl cells),[8],0.422 µg/mL
same,IC50 (Titer in TZM.bl cells),[9],0.675 µg/mL
same,IC80 (Titer in TZM.bl cells),[9],1.95 µg/mL
same,IC50 (Titer in TZM.bl cells),[11],0.806 µg/mL
same,IC80 (Titer in TZM.bl cells),[11],2.9 µg/mL
same,IC50 (Titer in TZM.bl cells),[12],0.02 µg/mL
same,IC80 (Titer in TZM.bl cells),[12],0.104 µg/mL
